Columns and labels:
[1] = target: non-His-tagged Gme HNHE (Gmet_0936 cleaved off the intein-CBD fusion, with non-native C-terminal residues LEGSS) (Geobacter metallireducens GS-15); experiment: SEC; Superdex 200 5/150 GL; 10 µl of 4 or 8 mg/ml protein injected; Kav against the standards ribonuclease A, ovalbumin and conalbumin
[2] = target: the molecule itself; experiment: SEC-MALS; analytical gel filtration on Shodex 802.5 at 4°C in 100 mM NaCl, 0.025% NaN3, 100 mM Tris-HCl pH 7.5, static light scattering and refractive index detectors; Debye analysis; data not shown

stoichiometry N [1]	Molecule	stoichiometry N [2]
2	non-His-tagged Gme HNHE (Gmet_0936 cleaved off the intein-CBD fusion, with non-native C-terminal residues LEGSS) (enzyme)	
	Gmet_0936 protein (putative HNH endonuclease) from Geobacter metallireducens GS-15, with C-terminal LEH6 (enzyme, UniProt Q39X46 1-104, looked up, selenomethionine in place of methionine (selenomethionine-labeled), Gmet_0936, putative HNH endonuclease of Geobacter metallireducens GS-15; full-length gene in a pET21 derivative (pGmR87-21.1); molecular mass with tag 13.3 kDa; The SEC with static light scattering used a thawed aliquot of the crystallization stock (the same protein as in the crystal); also called Gme HNHE (H6); Gmet_0936 (H6); source: E. coli BL21 (DE3) pMGK, selenomethionine-labeled, purified …) MNYFIVEVSEQEVKREKEKARELRRSQWWKNRIARGICHYCGEIFPPEELTMDHLVPVVRGGKSTRGNVVPACKECNNRKKYLLPVEWEEYLDSLESEPSDGEG	2

— PMC3765158, “Structure Determination and Biochemical Characterization of a Putative HNH Endonuclease from Geobacter metallireducens GS-15” (PLoS ONE, 2013)
